Laboratory results: the supplement of paper PMC9732359
± gives the uncertainty stated by the source.

test: protein stability index of a GFP-peptide fusion (yeast GPS) (PSI 1-4); higher = more stable; sorted into four equal gates, so the index is relative within each strain; details: pdr5∆
In short: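 Tiled 17-residue peptides from yeast proteins were fused downstream of GFP on a plasmid that also expresses Cherry, and the pooled library was carried in yeast. Mid-log cultures grown in leucine-free medium were sorted into four equal gates by GFP/Cherry fluorescence ratio. Plasmids from each gate were PCR-amplified and Illumina-sequenced, and reads were assigned to strains by barcodes. Each peptide's protein stability index is the sum, over gates, of the gate's read frequency multiplied by its gate number.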

First: MVNVPKTRKTYCKGKTC [RPL42A]
Second: MVTENPQRLTVLRLATN [MCD1]
The protein stability index of the first is lower: 1.41 ± 0.1 for the first, 2.32 ± 0.056 for the second.

With MVVQNSPVSSVHTANFS [MED2] the protein stability index was 2.67 ± 0.075.

same assay, conditions: san1∆

Going from LTMANLPSWSLGKWYSK [ARP7] to LTMHKIIQLILWSIHPS [SRB8], the protein stability index falls from 2.88 ± 0.17 to 1.61 ± 0.088.

LTRNAPLDSKDENFASV [SNF2] and LTVYLEPGHAADQEQAK [RPO21] are within error of each other in protein stability index: 3.07 ± 0.067 for the first, 3.05 ± 0.081 for the second.

Going from LVALLSRDLWCFSINDD [SSN2] to LVEEFMLLANISVARKI [DIS3], the protein stability index falls from 2.5 ± 0.098 to 1.77 ± 0.16.

Compared with LVEYGFDPSRIKDLKQR [SMC2], LVFQLAKNFSAQKRVVS [SRB8] is lower in protein stability index: 2.16 ± 0.082 for the first, 1.86 ± 0.076 for the second.

Going from LVGRKPAEHPFISAARY [RPC37] to LVHSEYLINGKRFKRKD [SRP68], the protein stability index rises from 2.08 ± 0.15 to 2.84 ± 0.076.

Compared with LVQEQVREFQRRLAFLG [BRR2], LVQLSTMETKTLPEKKQ [SIR4] is higher in protein stability index: 1.04 ± 0.22 for the first, 2.72 ± 0.052 for the second.

First: LVRNGPNEHPGAKYVIR [RPO21]
Second: LWPVAIGLIALSATGTR [YJR042W/NUP85]
The protein stability index of the first is higher: 2.76 ± 0.14 for the first, 1.36 ± 0.23 for the second.

Going from LYAIKKVTLNKETQQYE [BRR2] to LYEIILAANYLNIKPLL [SKP1], the protein stability index falls from 2.99 ± 0.094 to 1.28 ± 0.11.

First: LYFPDDYPFTQLGYIEN [POP1]
Second: LYGVTICYNKKTEYVLN [REC8]
The protein stability index of the first is higher: 3.1 ± 0.071 for the first, 1.14 ± 0.13 for the second.

First: LYKEFFNEKFPSLIQEE [NUT1]
Second: LYLQDSNDKFVHVQLLI [SRB8]
The protein stability index of the first is higher: 3.06 ± 0.059 for the first, 1.93 ± 0.066 for the second.

First: LYSIREDYELSPQAVSS [PRE1]
Second: MAESTTLETIEIHPITF [RRP43]
The protein stability index of the first is lower: 2.63 ± 0.062 for the first, 3.06 ± 0.044 for the second.

Compared with MAFNLLGLLTPEVVELC [FAS2], MAGLKDVVTREYTINLH [RPL31A] is higher in protein stability index: 1.22 ± 0.22 for the first, 3.01 ± 0.08 for the second.

Going from MAHENVWFSHPRRYGKG [RPS29A] to MAKLNECPLDPGGYFIV [RET1], the protein stability index falls from 3.18 ± 0.14 to 2.83 ± 0.086.

MANTGCLSPGAFLSKVP [SRP14] and MASTELSLKRTLTDILE [RPN4] are within error of each other in protein stability index: 2.74 ± 0.14 for the first, 2.72 ± 0.16 for the second.

Compared with MDALYEKIWFAISKENL [SIR3], MDCTKEEEATMTTSAVS [YIL149C/MLP2] is higher in protein stability index: 1.51 ± 0.088 for the first, 3.28 ± 0.06 for the second.

Going from MDFANLWVFQAFTCFCI [SRB8] to MDPQTLITKANKVSYYG [RTT102], the protein stability index rises from 1.16 ± 0.08 to 1.71 ± 0.12.

Going from MDTIQDKLINDVTAIQT [ECM29] to MEFSNLYKEFFNEKFPS [NUT1], the protein stability index falls from 3.2 ± 0.085 to 2.98 ± 0.069.

Going from MEGNAQPVNFNRSWDHA [RPO31] to MENEFFKVQELLHSKPS [NAS6], the protein stability index rises from 2.39 ± 0.13 to 2.68 ± 0.14.

First: MERLDGDYNNTVYSSEQ [SMC3]
Second: MFGAKPAGTSLFGNNAG [YGL172W/NUP49]
The protein stability index of the first is higher: 3.25 ± 0.071 for the first, 3.01 ± 0.072 for the second.

Going from MGDELTRSHFNALYDTL [RPN6] to MGSLINGITLALIDAGI [SKI6], the protein stability index falls from 2.67 ± 0.051 to 2.05 ± 0.075.

MGYSGWCTTCKSAENII [RET1] and MIDAVFEQDSHLRYQPD [SNF6] are within error of each other in protein stability index: 3.22 ± 0.079 for the first, 3.15 ± 0.041 for the second.

Compared with MIFWNDICQIDTNAPVA [SRB8], MIQPPQQGQNMSEQQWR [ROX3] is higher in protein stability index: 2.12 ± 0.093 for the first, 2.39 ± 0.093 for the second.

Going from MIQTPRELLNPRYTYHT [YML031W/NDC1] to MIRLLGSESDDSEGSIK [ECM29], the protein stability index falls from 2.98 ± 0.11 to 2.54 ± 0.26.

Going from MISEVPSVAAEYVYFFN [RPC40] to MKANPALYVLRERIRKG [PRP8], the protein stability index rises from 1.23 ± 0.11 to 2.66 ± 0.12.

Going from MKATSNTLEEFEHGRTP [FAS2] to MKLNILDERFASRVALN [IRR1], the protein stability index rises from 1.38 ± 0.15 to 2.17 ± 0.11.

MKLTDLLSLINSTHLLP [SNF12] and MKNPDVEFCGYSIPHPS [RPC19] are the same in protein stability index: 2.94 ± 0.05 for the first, 2.94 ± 0.049 for the second.

Compared with MKTNVHTQANEPNSAKK [RGR1], MKTVQSPMGAQPSYNSA [GAL11] is lower in protein stability index: 3.06 ± 0.086 for the first, 2.56 ± 0.21 for the second.

Going from MKYDIFAKFIHHIHHFE [IRR1] to MLAAQDVAAKCKEVGIT [RPS14A], the protein stability index falls from 2.46 ± 0.065 to 2.07 ± 0.068.

Going from MLDKLMVTSIRSTPNYI [MED6] to MLHKVLENKADPLVSLM [RPT6], the protein stability index rises from 2.43 ± 0.098 to 2.71 ± 0.058.

First: MLKPNIIFQQLLFWTDP [YCG1]
Second: MLKRFFPGVKGLVHDLC [SMC1]
The protein stability index of the first is lower: 1.21 ± 0.093 for the first, 1.95 ± 0.14 for the second.

First: MLLCVSYFLQERYFDCC [PCI8]
Second: MLMPKEDRNKIHQYLFQ [RPS10A]
The protein stability index of the first is lower: 1.55 ± 0.1 for the first, 2.49 ± 0.079 for the second.

Compared with MLQISDDNEMTRDDLLT [RRI2], MLQMKGKLLRNYTQNID [SIR2] is lower in protein stability index: 3.17 ± 0.038 for the first, 2.78 ± 0.086 for the second.

First: MLSKTKVYYFQGGNNEL [RPL30]
Second: MMTGAEQDPYSNASQMG [RPB3]
The protein stability index of the first is higher: 2.99 ± 0.14 for the first, 2.21 ± 0.2 for the second.

Compared with MNAGGRNVTIQLENADT [RPN2], MNIPQRQFSNEEVNRCY [SNF2] is higher in protein stability index: 1.62 ± 0.29 for the first, 2.96 ± 0.26 for the second.

MNLDFDIEEGPITSKSW [MCD1] and MNLKKELQGYIELSVPD [SRB5] are within error of each other in protein stability index: 3.17 ± 0.072 for the first, 3.15 ± 0.075 for the second.

Going from MPDMNEMMKMMQDPQMQ [SRP54] to MPFNDQGIVPDIIMNPH [RET1], the protein stability index falls from 3.5 ± 0.083 to 2.87 ± 0.052.

First: MPNSSLQPFYSQPTAAG [DSN1]
Second: MPPKEDWEKYKAPLEDD [RPT1]
The protein stability index of the first is lower: 2.44 ± 0.056 for the first, 3.38 ± 0.069 for the second.

Compared with MPVAPTMEVKSFPILDQ [YMR129W/POM152], MQRQQQGISGSQQNIVP [SNF2] is higher in protein stability index: 1.2 ± 0.2 for the first, 3.19 ± 0.046 for the second.

Going from MRNFSKQNQDSKHNERN [YDL088C/ASM4] to MRQQSKELQQLQKQILT [SMC1], the protein stability index rises from 2.46 ± 0.09 to 3.29 ± 0.039.

First: MSAQKAPKWYPSEDVAA [RPL6A]
Second: MSDTEAPVEVQEDFEVV [RPS5]
The protein stability index of the first is lower: 1.57 ± 0.27 for the first, 3.35 ± 0.078 for the second.

First: MSEVITITKRNGAFQNS [RRP4]
Second: MSFSSLYKTFFKRNAVF [QCR9]
The protein stability index of the first is higher: 2.79 ± 0.067 for the first, 1.34 ± 0.091 for the second.

Compared with MSISLESSKALADSLDR [DIS3], MSKVMKPSNGKGSRKSS [SNF12] is higher in protein stability index: 2.52 ± 0.096 for the first, 3.02 ± 0.11 for the second.

Compared with MSLKDKLLIQIDELSNG [SMC1], MSMSSTVIKFRAGVCEY [RPN13] is lower in protein stability index: 3.08 ± 0.11 for the first, 2.22 ± 0.13 for the second.

Going from MSPLECRNILGVTSLIK [RPP1] to MSPNHGTFGGDGMYSES [FAS2], the protein stability index rises from 1.84 ± 0.079 to 2.8 ± 0.14.

Compared with MSSQISSLIPHCITSIT [MTR3], MTKTITVAHIQYDFKAV [RPN14] is higher in protein stability index: 2.07 ± 0.073 for the first, 2.4 ± 0.063 for the second.

MTMASKSLEVVNADTVG [NSL1] and MTMNGIPVKLLNEAQGH [SMD3] are within error of each other in protein stability index: 2.7 ± 0.068 for the first, 2.76 ± 0.091 for the second.

First: MTRILPQQSRYISFIKD [RPN2]
Second: MTSIGTGYDLSNSVFSP [PRE10]
The protein stability index of the first is lower: 1.87 ± 0.067 for the first, 2.23 ± 0.27 for the second.

MVKLIVMLCTLTGYQNN [YJL039C/NUP192] and MVNVPKTRKTYCKGKTC [RPL42A] are the same in protein stability index: 1.99 ± 0.11 for the first, 1.99 ± 0.25 for the second.

MVTENPQRLTVLRLATN [MCD1] gave a protein stability index of 2.3 ± 0.062.
